In patent US20100260668A1 (published 2010):
Values belong to the binder of their own block, whether it stands above or below them.

Key:
[1] = biological target: T1, VEGF (VEGF 1-165 aa, R&D Systems 293-VE-010) (UniProt P15692 27-191); test: Direct bind ELISA, VEGF coated on plate; VEGF domain C-term., HC short/LC short
T1 construct: bought reagent; also called vascular endothelial growth factor

[2] = biological target: T1, VEGF (VEGF 1-165 aa, R&D Systems …); test: Direct bind ELISA, VEGF coated on plate; VEGF domain C-term., HC long/LC long
[3] = biological target: T1, VEGF (VEGF 1-165 aa, R&D Systems …); test: Direct bind ELISA, VEGF coated on plate; VEGF domain N-term., HC short/LC short
HGF [4] = biological target: T2, HGF (UniProt P14210 32-728); test: SPR (Biacore); C-terminal VD
T2 sequence (P14210 32-728 limits assumed): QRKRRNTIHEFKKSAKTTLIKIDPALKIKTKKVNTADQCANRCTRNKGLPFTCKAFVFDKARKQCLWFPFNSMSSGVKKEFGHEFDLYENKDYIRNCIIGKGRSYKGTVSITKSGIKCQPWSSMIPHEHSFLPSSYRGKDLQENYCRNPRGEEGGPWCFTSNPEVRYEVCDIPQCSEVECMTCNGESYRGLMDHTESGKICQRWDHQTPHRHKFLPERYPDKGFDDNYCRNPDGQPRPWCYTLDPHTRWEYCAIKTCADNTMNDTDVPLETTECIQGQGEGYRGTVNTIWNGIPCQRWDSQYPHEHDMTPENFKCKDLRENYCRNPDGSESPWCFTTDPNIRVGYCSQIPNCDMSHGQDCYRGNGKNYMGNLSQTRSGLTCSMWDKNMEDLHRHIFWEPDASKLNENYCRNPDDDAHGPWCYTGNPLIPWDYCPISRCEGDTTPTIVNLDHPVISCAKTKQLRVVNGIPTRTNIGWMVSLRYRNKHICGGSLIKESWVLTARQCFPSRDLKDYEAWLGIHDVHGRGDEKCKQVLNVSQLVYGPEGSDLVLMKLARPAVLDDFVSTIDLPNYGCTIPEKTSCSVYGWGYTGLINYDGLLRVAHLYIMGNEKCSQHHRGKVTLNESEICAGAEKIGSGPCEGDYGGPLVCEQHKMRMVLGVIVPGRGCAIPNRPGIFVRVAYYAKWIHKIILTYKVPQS

recombinant human HGF = biological target: T3, recombinant human HGF (human, UniProt P14210 32-728); test: competition ELISA: DVD-Ig co-incubated with 2 nM soluble c-Met Fc on coated HGF (competitor c-Met Fc)
T3 construct: The target there is entered as this HGF; also called hepatocyte growth factor
T3 sequence (P14210 32-728 limits assumed): as above

HGF [5] = biological target: T2, HGF; test: SPR (Biacore); parent antibody

T1 sequence (P15692 other isoform, or with tags, fused parts or gaps limits assumed): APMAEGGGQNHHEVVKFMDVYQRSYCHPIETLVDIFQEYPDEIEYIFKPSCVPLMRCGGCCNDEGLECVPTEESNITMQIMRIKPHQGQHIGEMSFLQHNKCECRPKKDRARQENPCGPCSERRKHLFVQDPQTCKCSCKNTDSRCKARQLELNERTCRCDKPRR

B2: DVD497 (bispecific antibody, human IgG1, kappa)
heavy: not shown
light: DIQMTQSSSYLSVSLGGRVTITCKASDHINNWLAWYQQKPGNAPRLLISGATSLETGVPSRFSGSGSGKDYTLSITSLQTEDVATYYCQQYWSIPLTFGAGTKLELKRTVAAPSVFIFPPDIQMTQSPSSLSASVGDRVTITCRASQVIRRSLAWYQQKPGKAPKLLIYAASNLASGVPSRFSGSGSGTDFTLTISSLQPEDFATYYCQQSNTSPLTFGQGTKVEIKRTVAAPSVFIFPPSDEQLKSGTASVVCLLNNFYPREAKVQWKVDNALQSGNSQESVTEQDSKDSTYSLSSTLTLSKADYEKHKVYACEVTHQGLSSPVTKSFNRGEC
notes: DVD-Ig; N-term; AB072 (DLL4), C-term; AB071 (VEGF); HC linker long, LC linker long; also called DVD-Ig DVD497; DVD497H/DVD497L
- EC50 [2]: 858 nM

B6: DVD045 (bispecific antibody, human IgG1, kappa)
heavy: not shown
light: DIQMTQSPSSLSASVGDRVTITCSASQDISNYLNWYQQKPGKAPKVLIYFTSSLHSGVPSRFSGSGSGTDFTLTISSLQPEDFATYYCQQYSTVPWTFGQGTKVEIKRTVAAPDIQMTQSPSSVSASVGDRVTITCRASQGISSWLAWYQQKPGKAPNLLIYEASSLQSGVPSRFGGSGSGTDFTLTISSLQPEDFATYYCQQANGFPWTFGQGTKVEIKRTVAAPSVFIFPPSDEQLKSGTASVVCLLNNFYPREAKVQWKVDNALQSGNSQESVTEQDSKDSTYSLSSTLTLSKADYEKHKVYACEVTHQGLSSPVTKSFNRGEC
notes: N-terminal VD VEGF, C-terminal VD HGF; also called DVD045H; DVD045L
- Kd (HGF [4]): 0.901 nM
- koff (HGF [4]): 0.000166 s⁻¹
- kon (HGF [4]): 184000 M⁻¹ s⁻¹

B8: AB012 (antibody, human IgG1, kappa, V domains shown)
VH: QVQLVESGGGLVKPGGSLRLSCAASGFTFSDYYMSWIRQAPGKGLEWVSYISSSGSTIYYADSVKGRFTISRDNAKNSLYLQMNSLRAEDTAVYYCARDEYNSGWYVLFDYWGQGTLVTVSS
VL: DIQMTQSPSSVSASVGDRVTITCRASQGISSWLAWYQQKPGKAPNLLIYEASSLQSGVPSRFGGSGSGTDFTLTISSLQPEDFATYYCQQANGFPWTFGQGTKVEIKR
notes: also called AB012VH; AB012VL
- Kd (HGF [5]): < 0.0284 nM
- koff (HGF [5]): 0.000284 s⁻¹
- kon (HGF [5]): > 1e+07 M⁻¹ s⁻¹

Second part, the binder after the results:

- EC50 [1]: 58.5 nM
B1: DVD513 (bispecific antibody, human IgG1, kappa)
heavy: not shown
light: QAVVTQESALTTSPGETVTLTCRSSTGAVTTSNYANWVQEKPDHLFTGLIGGTNNRAPGVPARFSGSLIGDKAALTITGAQTEDEAIYFCALWYSNHWVFGGGTKLTVLGQPKAAPDIQMTQSPSSLSASVGDRVTITCRASQDVSTAVAWYQQKPGKAPKLLIYSASFLYSGVPSRFSGSGSGTDFTLTISSLQPEDFATYYCQQSYTTPPTFGQGTKVEIKRTVAAPSVFIFPPSDEQLKSGTASVVCLLNNFYPREAKVQWKVDNALQSGNSQESVTEQDSKDSTYSLSSTLTLSKADYEKHKVYACEVTHQGLSSPVTKSFNRGEC
notes: DVD-Ig; N-term; AB073 (DLL4), C-term; AB070 (VEGF); HC linker short, LC linker short; also called DVD-Ig DVD513; DVD513H/DVD513L

- EC50 [3]: 67.4 nM
B3: DVD514 (bispecific antibody, human IgG1, lambda)
heavy: not shown
light: DIQMTQSPSSLSASVGDRVTITCRASQDVSTAVAWYQQKPGKAPKLLIYSASFLYSGVPSRFSGSGSGTDFTLTISSLQPEDFATYYCQQSYTTPPTFGQGTKVEIKRTVAAPQAVVTQESALTTSPGETVTLTCRSSTGAVTTSNYANWVQEKPDHLFTGLIGGTNNRAPGVPARFSGSLIGDKAALTITGAQTEDEAIYFCALWYSNHWVFGGGTKLTVLGQPKAAPSVTLFPPSSEELQANKATLVCLISDFYPGAVTVAWKADSSPVKAGVETTTPSKQSNNKYAASSYLSLTPEQWKSHRSYSCQVTHEGSTVEKTVAPTECS
notes: DVD-Ig; N-term; AB070 (VEGF), C-term; AB073 (DLL4); HC linker short, LC linker short; also called DVD-Ig DVD514; DVD514H/DVD514L

- EC50 [3]: 6.7 nM
B4: DVD490 (bispecific antibody, human IgG1, kappa)
heavy: not shown
light: DIQMTQSPSSLSASVGDRVTITCRASQDVSTAVAWYQQKPGKAPKLLIYSASFLYSGVPSRFSGSGSGTDFTLTISSLQPEDFATYYCQQSYTTPPTFGQGTKVEIKRTVAAPDIQMTQSSSYLSVSLGGRVTITCKASDHINNWLAWYQQKPGNAPRLLISGATSLETGVPSRFSGSGSGKDYTLSITSLQTEDVATYYCQQYWSIPLTFGAGTKLELKRTVAAPSVFIFPPSDEQLKSGTASVVCLLNNFYPREAKVQWKVDNALQSGNSQESVTEQDSKDSTYSLSSTLTLSKADYEKHKVYACEVTHQGLSSPVTKSFNRGEC
notes: DVD-Ig; N-term; AB070 (VEGF), C-term; AB072 (DLL4); HC linker short, LC linker short; also called DVD-Ig DVD490; DVD490H/DVD490L

- EC50 [1]: 1250 nM
B5: DVD491 (bispecific antibody, human IgG1, kappa)
heavy: not shown
light: DIQMTQSSSYLSVSLGGRVTITCKASDHINNWLAWYQQKPGNAPRLLISGATSLETGVPSRFSGSGSGKDYTLSITSLQTEDVATYYCQQYWSIPLTFGAGTKLELKRTVAAPDIQMTQSPSSLSASVGDRVTITCRASQVIRRSLAWYQQKPGKAPKLLIYAASNLASGVPSRFSGSGSGTDFTLTISSLQPEDFATYYCQQSNTSPLTFGQGTKVEIKRTVAAPSVFIFPPSDEQLKSGTASVVCLLNNFYPREAKVQWKVDNALQSGNSQESVTEQDSKDSTYSLSSTLTLSKADYEKHKVYACEVTHQGLSSPVTKSFNRGEC
notes: DVD-Ig; N-term; AB072 (DLL4), C-term; AB071 (VEGF); HC linker short, LC linker short; also called DVD-Ig DVD491; DVD491H/DVD491L

- IC50 (recombinant human HGF): > 100 nM
B7: DVD045 (VEGF (seq. 1) N-terminal / HGF (seq. 1) C-terminal DVD-Ig, linker set 1) (bispecific antibody, human IgG1, kappa)
heavy: not shown
light: DIQMTQSPSSLSASVGDRVTITCSASQDISNYLNWYQQKPGKAPKVLIYFTSSLHSGVPSRFSGSGSGTDFTLTISSLQPEDFATYYCQQYSTVPWTFGQGTKVEIKRTVAAPDIQMTQSPSSVSASVGDRVTITCRASQGISSWLAWYQQKPGKAPNLLIYEASSLQSGVPSRFGGSGSGTDFTLTISSLQPEDFATYYCQQANGFPWTFGQGTKVEIKRTVAAPSVFIFPPSDEQLKSGTASVVCLLNNFYPREAKVQWKVDNALQSGNSQESVTEQDSKDSTYSLSSTLTLSKADYEKHKVYACEVTHQGLSSPVTKSFNRGEC
notes: also called DVD045H/DVD045L
